The results in this text go back to patent US20110086029A1 (University of California, published 2011).

The target of this experiment is T1, murine N-Cadherin (murine, UniProt P15116 160-724, limits assumed).
T1 construct: The assay used to show cross-reactivity is not described
T1 sequence (looked up): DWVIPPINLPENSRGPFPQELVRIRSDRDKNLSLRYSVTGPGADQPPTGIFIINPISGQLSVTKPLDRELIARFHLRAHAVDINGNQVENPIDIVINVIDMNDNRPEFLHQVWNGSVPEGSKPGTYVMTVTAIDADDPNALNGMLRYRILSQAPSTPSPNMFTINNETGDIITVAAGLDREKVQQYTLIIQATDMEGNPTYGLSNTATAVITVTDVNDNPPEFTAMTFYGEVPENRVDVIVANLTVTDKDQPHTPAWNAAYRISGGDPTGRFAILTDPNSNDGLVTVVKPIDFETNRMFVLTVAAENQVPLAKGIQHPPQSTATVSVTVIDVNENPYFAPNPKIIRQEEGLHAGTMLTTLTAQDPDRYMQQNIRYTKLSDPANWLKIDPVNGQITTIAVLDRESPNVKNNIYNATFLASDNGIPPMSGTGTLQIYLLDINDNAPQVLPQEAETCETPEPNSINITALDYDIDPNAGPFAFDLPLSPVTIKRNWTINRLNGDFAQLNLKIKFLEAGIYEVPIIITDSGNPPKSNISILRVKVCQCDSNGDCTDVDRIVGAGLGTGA
In words: assay not described.

B1: N-Cadherin antibody EC4 (monoclonal antibody produced by mouse hybridoma ATCC Accession No. PTA-9388) (antibody, V domains shown)
VH: QVKLQQSGAELARPGASVKLSCKASGYTFTSYWMQWVKQRPGQGLEWIGAIYPGDGETTYTQKFKGKATLTADKSSSTAYMQLSSLASEDSAVYYCAKGDGYWAMDYWGQGTSVTVSS
VL: DIVMTQTPLSLPVSLGDQASISCRSSQSLVHSNGNTYLHWYLQKPGQSPKLLIYKVSNRFSGVPDRFSGSGSGTDFTLKISRVEAEDLGVYFCSQSTHVPLTFGAGTKLELK
notes: Mouse hybridoma monoclonal antibody
Regarding B1, the binding result is on record as “binds”.

B2: N-Cadherin antibody 1H7 (monoclonal antibody produced by mouse hybridoma ATCC Accession No. PTA-9387) (antibody, V domains shown)
VH: QVQLQQSGAELVKPGASVKLSCKASGFTFTDYLIQWVKQRSGQGLEWIGWFYPGSGSIKYNEKFKDKATLTADKSSNTVYMEISRLTSEDSAVYFCARRGDWGGFFDYWGQGTTLTVSS
VL: DIVLTQSPAIMSASLGERVTMTCTASSSVSSSYLHWYQQKPGSSPKLWIFSTSNLASGVPDRFSGSGSGTSYSLTINSMEAEDAATYYCHQYHRSLTFGAGTKLELK
notes: as for B1
In the case of B2, the binding result is “binds”.
